{"source": "patent JP2004500847A", "about": "(dated 2004)", "key": {"[1]": {"molecular_target": "HLA-DR on HLA-DR-positive cell lines (GRANTA-519, MHH-CALL4, Priess or LG2; allotype not stated) (human)", "experiment": "cell-based or functional assay"}, "[2]": {"molecular_target": "T1, human MHC class II DR protein (DRA*0101/DRB1*0401) purified from Priess cells (human, UniProt P01903 26-254; P01911 30-266, limits assumed)", "T1 construct": "mature; Native heterodimer isolated from cell lysate; Coated on ELISA plates or coupled to a BIAcore CM5 chip; also called HLA-DR protein; MHC-class II DRA*0101/DRB1*0401", "T1 MHC II alpha": "not shown", "T1 MHC II beta": "not shown", "experiment": "SPR (Biacore), DR protein on the chip"}, "[3]": {"molecular_target": "HLA-DR on the human B lymphoblastoid cell line LG-2 (human)", "experiment": "flow cytometry on LG-2 cells, 35 ug Fab first; competitor 1-1C4 (2 ug)"}}, "note": "Several values for one entry are separate records, joined by “and”; a condition that tells them apart may be missing. Equal entries are not always repeated.", "data": [{"binder": "MS-GPC-8-Fab (Fab, V domains shown) VH: QVQLKESGPALVKPTQTLTLTCTFSGFSLSTSGVGVGWIRQPPGKALEWLALIDWDDDKYYSTSLKTRLTISKDTSKNQVVLTMTNMDPVDTATYYCARSPRYRGAFDYWGQGTLVTVSS VL: DIVLTQPPSVSGAPGQRVTISCSGSSSNIGSNYVSWYQQLPGTAPKLLIYDNNQRPSGVPDRFSGSKSGTSASLAITGLQSEDEADYYCQSYDMPQAVFGGGTKLTVLG", "values": [{"measurement": "EC50 of cell killing (Priess or LG2 cells), as concentration of the bivalent cross-linked (Fab) dimer", "setting": "[1]", "value": "< 60", "unit": "nM"}, {"measurement": "EC50 of cell killing (Priess or LG2 cells), as concentration of the monovalent fragment, cross-linked with anti-FLAG M2", "setting": "[1]", "value": "< 120", "unit": "nM"}, {"measurement": "EC50 of cell killing (concentration of the bivalent cross-linked Fab dimer; cell line not named here)", "setting": "[1]", "value": "20 nM and 40 nM"}, {"measurement": "maximal killing of MHH-CALL 4 cells", "setting": "[1]", "value": 65, "unit": "%"}, {"measurement": "Kd", "setting": "[2]", "value": 346, "unit": "nM"}, {"measurement": "decrease of binding of the mouse antibody", "setting": "[3]", "value": 50, "unit": "%"}]}]}
